Experimental data reported in publication PMC7806223, “Structures of Rhodopseudomonas palustris RC-LH1 complexes with open or closed quinone channels” (Science Advances, 2021).

What was measured:
Assay in all cases: cryo-EM structure; RC-LH1_(14)-W complex purified from the PufW-His strain; in IMAC buffer (20 mM tris-HCl pH 8.0, 200 mM NaCl, 0.03% β-DDM); 2.65 Å
Conditions in all cases: both partners purified
RC-L (PufL) = molecular target: T1, RC-L (PufL) (Rhodopseudomonas palustris CGA009, UniProt O83005 1-277)
T1 construct: reaction center L subunit (PufL) of Rhodopseudomonas palustris; also called subunit L; L polypeptide; source: endogenous, Rps. palustris CGA009 (ΔpufW and PufW-His strains); purified within RC-LH1 complexes from β-DDM-solubilized membranes

RC-M (PufM) = molecular target: T2, RC-M (PufM) (Rhodopseudomonas palustris CGA009, UniProt A0A4Z7 1-307)
T2 construct: reaction center M subunit (PufM) of Rhodopseudomonas palustris; also called subunit M; M polypeptide; source: endogenous, Rps. palustris CGA009 (ΔpufW and PufW-His strains); purified within RC-LH1 complexes from β-DDM-solubilized membranes

[1] = molecular target: T3, protein-W (PufW), C-terminally 10× His-tagged (Rhodopseudomonas palustris CGA009, UniProt Q6N1K3 1-102)
T3 construct: protein-W (PufW, RPA4402) of Rhodopseudomonas palustris, a 10.5-kDa protein with three transmembrane helices; C-terminal amino acids are unresolved in the map; also called PufW-His; RPA4402; source: Rps. palustris CGA009 PufW-His strain, expressed from the native pufW locus; purified within RC-LH1_(14)-W (Ni-NTA IMAC, DEAE, SEC); not shown: 10× His, C-terminal, kept
T3 sequence: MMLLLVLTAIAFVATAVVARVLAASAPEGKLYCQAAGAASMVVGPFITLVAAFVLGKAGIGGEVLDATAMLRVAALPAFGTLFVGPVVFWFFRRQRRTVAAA

B1: RC-H (PuhA) (natural protein, Rhodopseudomonas palustris CGA009, UniProt A0A4Z9 1-255, looked up)
chain: MQPGAYLDLAQVTLYVFWIFFAGLLFYLRREDKREGYPLVADAGSGTRLAKIGVPAPPDPKTYLLRGGATKTVPSTSNDRPNVALTPAAPWPGAPFVPTGNPFADGVGPGSYAQRADVPELGLDNLPIIVPLRAAKGMFLDPRDPNPVGMPVVGCDGVVGGTVTEVWVDRAEVLARYLEVEVAKSRKRVLLPVPFALINDPFGKVSVDAIRGDQFAGVPTTSKGDQVSKLEEDKICAYYGAGTLYATPLRSESLV
notes: reaction center H subunit (PuhA) of Rhodopseudomonas palustris; C-terminal amino acids are unresolved in the map; also called subunit H; source: endogenous, Rps. palustris CGA009 (ΔpufW and PufW-His strains); purified within RC-LH1 complexes from β-DDM-solubilized membranes
B1: binds (RC-L (PufL)); binds (RC-M (PufM)).

B2: LH1-β (PufB) (natural protein)
chain: not shown
notes: LH1-β (PufB) of Rhodopseudomonas palustris; mass spectrometry of wild-type RC-LH1: residues Ser2 to Ala53; resolved Gly4 to Tyr52 in RC-LH1_(16) and Ser5 to Tyr52 in RC-LH1_(14)-W, no density for 13 C-terminal residues; 14 copies in RC-LH1_(14)-W, 16 copies in RC-LH1_(16); The termini were found by mass spectrometry on mixed complexes of the wild-type strain; also called β-polypeptide; source: …
B2: binds [1].
